According to US12723078 (University of Texas, dated 2026):
Substitutions are numbered along the chain they refer to. Names may count otherwise.

B1: B1-#190 (antibody, V domains shown)
VH: QEQLKESGGDLVKPEGSLTLTCTASGFSFSSDYWVCWVRQAPGKGPEWIGCIYTGDDDTYYASWAKGRFTISKTSSTTVTLEVTSLTAADTATYFCARGLTIGTAELYFWGPGTVVTVSS
VL: ELVLTQTPSPVSAAVGGTVTINCQASQSISNELSWYQQKPGQPPKLLIYLASTLDSGVPSRFKGSGSGTQFTLTISDLECADAATYYCQSHYYGGSSDYGWAFGGGTEVVVK
notes: recombinant rabbit IgG
B2: B1-#5 (antibody, V domains shown)
VH: EQSLEESGGDLVKPEGSLTLTCTASELSFSSAYYMCWVRQAPGKGLEWIGCIYSGDGDTYYANWAKGRFTISKTSSTTVTLQMTSLTDADTATYFCARALDSHYSSFDLWGPGTLVTISS
VL: ELDMTQTPSSVSAAVGDTVTIKCQASQSIYRYLAWYQQKPGQRPSLLIYYGSDLASGVPSRFSGSGSGTEFTLTISDLECADAASYYCQTTYDDYHNGWAFGGGTNVEIN
notes: recombinant rabbit IgG
B3: B1-#204 (antibody, V domains shown)
VH: QSVKESGGGLVKPGGTLTLTCTASGFSFSSSYCMCWVRQAPGKGLELIACIYTDSSGATYYASWAKGRFTISKSSSTTITLQMTSLTAADTATYFCARGWDYEDPGYTDTTYFSLWGPGTLVTVSS
VL: ELDMTQTPSSVEAAVGGTVTIKCQASQTIYTNLAWYQQKPGQPPNLLIYAASTLASGVSSRFKGSGSGTEFTLTISDLECADAATYYCQSYYGSSTTGNGFGGGTEVEIN
notes: recombinant rabbit IgG
B4: B1-176-N297A (antibody, V domains shown)
VH: B3 VH with V3L, K4E, G7E
VL: B3 VL with M4L, N110K
B5: B1-#178-2 (antibody, V domains shown)
VH: QKQLVESGGGLVQPEGSLALTCTASGFSFSSSYWICWVRQAPGKGLEWIACIYAGSSGSTYYASWVNGRFTVFKTSSTTVTLQMTSLTAADTATYFCARGGTSYRLDLWGPGTLVTVSS
VL: ELVLTQTPSSKSVAVGDTVTINCQASDNVYSNNYTSWFQQKPGQPPKQLLYYAAYRASGVPSRFKGSGSGTEFTLSISDVVCDDAATYYCSGHKDYSDDGSTFGGGTEVEIK
notes: recombinant rabbit IgG
B6: B1-#93 (antibody, V domains shown)
VH: EQSVEESGGDLVKPGTSLTLTCTASGFSFSGNTICWVRQAPGKRPEWIACIYPSSTSITTYATWAKGRFTVSKTSSTTVTLQMTSLTAADTATYFCARRYAAFLTYGSGAFDPWGPGTLVTISS
VL: ELDLTQTPASVSAAVGGTVTINCQASESIGSALAWYQQKPGQPPKLLIYSASALASGVPSRFKGSGSGTEYTLTISDLECADAATYYCQSYYGSGTTALDTFGGGTEVEIK
notes: recombinant rabbit IgG
B7: B1-#27 (antibody, V domains shown)
VH: EQSVKESGGGLVQPEGSLTLTCTVSGFSFSGSYWICWVRQAPGKGLEWIACIYGDSIATYYPNWAKGRFTISKTSSTTVTLQMASLTGADTATYFCARDRNGGSGAYGWDLWGPGTLVTISS
VL: ELDLTQTPASVSEPVGGTVTITCQASQSISSYLSWYQQTPGQPPKLLIYKASTLASGVPSRFKGSGSGTEFTLTISDLECADAATYYCQSYYYISATVDNTFGGGTEVEIK
notes: recombinant rabbit IgG
B8: B1-#22 (antibody, V domains shown)
VH: EQSLEESGGGLVKPGASLTLTCKASGFDFSSNDYMCWVRQAPGKGLEWIGCIYGGDGHTYYATWAKGRFTISKASSTTVTLQMTSLTAADTASYFCARGYSYGDTGYADAILTLDLWGPGTLVTVSS
VL: ELDLTQTPASVEAAVGGTVTIKCQASQTIGSYLSWYQQKPGQRPKLLIYEASKLASGVPSWFKGSGSGTEFTLTISDLECADAATYYCQSNYYRAGGNYGGAFGGGTEVEIK
notes: recombinant rabbit IgG
B9: humanized B1-176 with heavy chain Hu-176 VH-1 and light chain Hu-176 VL (antibody, V domains shown)
VH: EVQLVESGGGLVQPGGSLRLSCAASGFSFSSSYCMCWVRQAPGKGLEWVSCIYTDSSGATYYASWAKGRFTISRHNSKNTLYLQMNSLRAEDTAVYYCARGWDYEDPGYTDTTYFSLWGRGTLVTVSS
VL: DIQLTQSPSFLSASVGDRVTITCQASQTIYTNLAWYQQKPGKAPKLLIYAASTLASGVPSRFSGSGSGTEFTLTISSLQPEDFATYYCQSYYGSSTTGNGFGGGTKVEIK
B10: Hu B1-176-LALAPG (antibody, V domains shown)
VH: B9 VH with W48L
VL: B9 VL
notes: Human IgG1 with L234A, L235A and P329G
B11: Hu B1-176-N297A (antibody, V domains shown)
VH: B9 VH with W48L
VL: B9 VL
notes: Human IgG1 with N297A
B12: B1-#209 (antibody, V domains shown)
VH: SQSVEESGGDLVKPGGTLTLTCTASRIDLNNYYYISWVRQAPGKGLEWIGVVATDSSVTWYASWAKGQFTISKTSSTTVTLQMTSLTAADTATYFCARGSGAATNGVWWVMGDGMDLWGPGTLVTVSS
VL: ELVMTQTPASVSEPVGGTVTIKCQASQSISSYLSWYQQKPGQPPKRLIYKASTLASGVPSRFKGSGSGTEFTLTISGVQCADAATYYCQNNYHSGSSNGGGFAFGGGTEVEIK
notes: recombinant rabbit IgG
B13: B1-#3 (antibody, V domains shown)
VH: QSLEESEGDLVKPEGSLTLTCKASGFDFSSDAMCWVRQAPGKGLEWIGCIYNGDEITDHASWAKGRFTISKTSPTTVTLQMTSLTVADTATYFCARAVYSDGGAGYPYMYGMDLWGPGTLVTVSS
VL: ELDMTQTPASVEAAVGGTVTIKCQASQNIYSYLVWYQQKPGQPPKLLISKASTLASGVSSRFKGSGSGTEFTLTINDLECADAATYYCQTNYFSSTSHFGVFTFGGGTELEIK
notes: IgG; also called antagonistic B1-3
B14: B1-#198 (antibody, V domains shown)
VH: QSLEESGGGLVKPEGSLTLTCTASGFDLSNNYYICWVRQAPGKGLELIACVDSDLTDSADYASWAKGRFTISKTSSTTVTLQMTSLTAADTATYFCAGSGSGYYYYYGMDLWGPGTLVTISS
VL: ELDMTQTPASVSEPVGGTVTIKCQASQSIGSYLAWYQQKPGQPPKLLAFYASTLKSGVPPRFKGSGSGTEFTLTISDLECADAATYYCQSNRLSSSDVNAFGGGTEVEIK
notes: recombinant rabbit IgG

Tests used:
LILRA1 = molecular target: T1, LILRA1 (human, UniProt O75019); assay: Octet RED96, cross-reactivity table
T1 construct: not the cell-surface form of MOLECULES; also called LILRA1 protein of the ELISA and Octet specificity tests

recombinant LILRB1 [1] = molecular target: T2, recombinant LILRB1 (human, UniProt Q8NHL6 24-461); assay: ELISA, coated recombinant LILRB1, antibody titration;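 note: serially diluted anti-LILRB1 antibodies incubated 60 min at 37 °C on plates coated with 50 ng/well recombinant protein, TMB colorimetric development read as absorbance at 450 nm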
T2 construct: LILRB1-Fc proteins were also made; also called LILRB1 recombinant proteins
Method: (§1) ELISA. LILRB1 recombinant proteins (50 ng/well, 100 μL per well) were coated on Corning 96-well ELISA plates at 37° C. for 4 hrs. Plates were blocked for 2 hrs at 37° C. with 5% non-fat milk. After washing with PBST, 100 μL of serial diluted anti-LILRB1 antibodies were added and incubated for 60 min at 37° C. […] Plates were washed again with PBST for another 5 times, then the immunoreactions were developed with TMB substrates (Sigma, Cat #T0440) and stopped by the addition of 2 M H_2SO_4 before the plate was read at 450 nm.

[2] = molecular target: T3, recombinant human LILRB1 protein (human, UniProt Q8NHL6 24-461); assay: Octet RED96, LILRB1 at 100, 33.3, 11.1 and 3.7 nM
T3 construct: ELISA and Octet methods say only 'recombinant LILRB1'; also called recombinant LILRB1; LILRB1 recombinant proteins
Method: (§2) Following a short baseline in kinetics buffer for 20 s, the loaded biosensors were exposed to solutions of recombinant LILRB1 in a range of concentrations (0-500 nM). After background was subtracted, data was fit to a 1:1 binding model to extract an association rate ($kon$) and dissociation rate ($koff$). The KD was calculated using the ratio $koff/kon$. […] All experiments were performed with shaking at 1,000 rpm. All raw data was processed using ForteBio Octet Data Analysis Software 9.0.

recombinant LILRB1 [3] = molecular target: T2, recombinant LILRB1; assay: BLI (Octet RED96), antibody on biosensor, recombinant LILRB1 in solution;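 note: Background-subtracted sensorgrams fitted with a one-to-one binding model, KD taken as koff over kon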
Method: as §2

[4] = molecular target: T3, recombinant human LILRB1 protein; assay: ELISA
Method: as §1

[5] = molecular target: T3, recombinant human LILRB1 protein; assay: ELISA; remark: listed apart in the source
Method: as §1

T2 sequence (Q8NHL6 24-461 limits assumed): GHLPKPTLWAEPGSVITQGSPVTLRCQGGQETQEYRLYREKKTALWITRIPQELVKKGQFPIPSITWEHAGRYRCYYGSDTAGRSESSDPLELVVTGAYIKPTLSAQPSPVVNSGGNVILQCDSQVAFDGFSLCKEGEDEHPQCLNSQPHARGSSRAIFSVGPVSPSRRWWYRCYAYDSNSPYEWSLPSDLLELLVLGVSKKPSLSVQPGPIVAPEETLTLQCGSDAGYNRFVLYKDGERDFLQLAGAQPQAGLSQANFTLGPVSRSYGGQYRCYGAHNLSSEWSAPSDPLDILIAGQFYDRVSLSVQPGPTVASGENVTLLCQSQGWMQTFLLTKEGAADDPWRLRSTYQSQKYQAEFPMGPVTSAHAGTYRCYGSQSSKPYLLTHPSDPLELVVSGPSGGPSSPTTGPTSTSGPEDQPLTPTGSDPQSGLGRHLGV
T3 sequence (Q8NHL6 24-461 limits assumed): as above
T1 sequence (O75019 17-461 limits assumed): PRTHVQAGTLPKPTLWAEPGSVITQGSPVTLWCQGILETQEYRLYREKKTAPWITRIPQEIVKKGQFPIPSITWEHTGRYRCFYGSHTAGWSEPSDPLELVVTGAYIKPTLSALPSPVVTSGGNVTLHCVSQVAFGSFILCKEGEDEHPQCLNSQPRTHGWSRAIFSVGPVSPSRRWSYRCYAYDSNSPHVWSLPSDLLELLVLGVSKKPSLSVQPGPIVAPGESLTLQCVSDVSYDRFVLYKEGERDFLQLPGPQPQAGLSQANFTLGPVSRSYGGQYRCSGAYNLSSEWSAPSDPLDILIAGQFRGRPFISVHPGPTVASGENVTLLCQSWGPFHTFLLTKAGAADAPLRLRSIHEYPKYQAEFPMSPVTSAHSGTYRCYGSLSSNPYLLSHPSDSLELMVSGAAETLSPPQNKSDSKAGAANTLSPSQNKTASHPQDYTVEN

| Binder | EC50 (recombinant LILRB1 [1]) [µg/mL] | Kd (recombinant LILRB1 [3]) [nM] | koff (recombinant LILRB1 [3]) [s⁻¹] | kon (recombinant LILRB1 [3]) [M⁻¹ s⁻¹] | also measured |
| --- | --- | --- | --- | --- | --- |
| B1 | 0.00678 | – | – | – | binding result (LILRA1): binds |
| B2 | 0.00602 | – | – | – | binding result (LILRA1): binds |
| B3 | 0.00737 | – | – | – | binding result (LILRA1): no binding (tested: not given) |
| B4 | – | – | – | – | Kd [2]: 0.17 nM |
| B5 | 0.0143 | 1.59 | 0.000273 | 172000 | – |
| B6 | 0.482 | 8.54 | 0.000338 | 39600 | – |
| B7 | 0.00794 | 1.27 | 0.000161 | 127000 | – |
| B8 | 0.0292 | 0.611 | 8.62e-05 | 141000 | – |
| B9 | – | – | – | – | binding result [4]: binds |
| B10 | – | – | – | – | EC50 (read off the curve) [5]: ~0.04 µg/mL |
| B11 | – | – | – | – | Kd [2]: 0.351 nM |
| B12 | 0.011 | 3.03 | 0.000209 | 68900 | – |
| B13 | – | – | – | – | binding result (LILRA1): binds |
| B14 | 0.00942 | 0.0272 | 5.92e-06 | 218000 | – |
